Data on 33 molecules can be found in patent publication US20200199244A1 (published 2020).

Where “and” joins values, the source holds several entries; their conditions need not be identical. Equal values may be shown once.

B1: BMS3h-56-16 (other)
VH: EVQLLESGGGLVQPGGSLRLSCAASGFTFRDYEMWWVRQAPGKGLERVSAINPQGTRTYYADSVMGRFTISRDNSKNTLYLQMNSLRAEDTAVYYCAKLPFTFEDWGQGTLVTVSS
notes: dAb, single VH
B2: BMS3h-56-19 (other)
VH: EVQLLESGGGLVQPGGSLRLSCAASGFTFRDYEMWWVRQAPGKGLERVSAINPQGTRTYYADSVKGRFTISRDNSKNTLYLQMNSLRAEDTAVYHCAKLPFTFEDWGQGTLVTVSS
notes: dAb, single VH
B3: BMS3h-56-20 (other)
VH: EVQLLESGGGLVQPGGSLRLSCAASGFTFRDYEMWWVRQAPGKGLERVSAINPQGTRTYYADSVKGRFTISRDNSKNTLYLQMNSLRAEDTAVYYCTKLPFTFEDWGQGTLVTVSS
notes: dAb, single VH
B4: BMS3h-198-31 (other)
VH: EVQLLESGGGLVQPGGSLRLSCAASGFTFAGYEMWWVRQAPGKGLERVSAISGSGGSTYYADSVKGRFTISRDNSKNTLYLQMNSLRAEDTAVYHCAKEPYSYDYWGQGTLVTVSS
notes: dAb, single VH
B5: BMS3h-56-23 (other)
VH: EVQLLESGGGLVQPGGSLRLSCAASGFTFRDYEMWWVRQAPGKGLERVSAINPQGTRTYYADSVMGRFTISRDNSKNTLYLQMNSLRAEDTAVYYCAKEPYSFDSWGQGTLVTVSS
notes: dAb, single VH
B6: BMS3h-56-26 (other)
VH: EVQLLESGGGLVQPGGSLRLSCAASGFTFRDYEMWWVRRAPGKGLERVSAINPQGTRTYYADSVMGRFTISRDNSKNTLYLQMNSLRAEDTAVYYCAKLPFMFDDRGQGTLVTVSS
notes: dAb, single VH
B7: BMS3h-56-25 (other)
VH: EVQLLESGGGLVQPGGSLRLSCAASGFTFRDYEMWWVRRAPGKGLERVSAINPQGTRTYYADSVMGRFTISRDNSKNTLYLQMNSLRAEDTAVYYCAKLPFTFDDWGQGTLVTVSS
notes: dAb, single VH
B8: BMS3h-198-32 (other)
VH: EVQLLESGGGLVQPGGSLRLSCAASGFTFAGYEMWWFRQAPGKGLERVSAISGSGGSTYYADSVKGRFTISRDNSKNTLYLQMNSLRAEDTAVYYCAKDPYSFDNWGQGTLVTVSS
notes: dAb, single VH
B9: BMS3h-198-33 (other)
VH: EVQLLESGGGLVQPGGSLRLSCAASGFTFAGYEMWWVRQAPGKGLERVSAISGSGGSTYYADSVKGRFTISRDDSKNTLYLQMNSLRAEDTAVYYCAKEPYSYDYWGQGTLVTVSS
notes: dAb, single VH
B10: BMS3h-56-29 (other)
VH: EVQLLESGGGLVQPGGSLRLSCAASGFTFAGYELWWVRQAPGKGLERVSAINPQGTRTYYADSVMGRFTISRDNSKNTLYLQMNSLRAEDTAVYYCAKLPFMFDDRGQGTLVTVSS
notes: dAb, single VH
B11: BMS3h-56-30 (other)
VH: EVQLLESGGGLVQPGGSLRLSCAASGFTFAGYEMWWFRQAPGKGLERVSAINPQGTRTYYADSVMGRFTISRDNSKNTLYLQMNSLRAEDTAVYYCAKLPFTFDDWGQGTLVTVSS
notes: dAb, single VH
B12: BMS3h-56-24 (other)
VH: EVQLLESGGGLVQPGGSLRLSCAASGFTFRDYEMWWVRQAPGKGLERVSAINPQGTRTYYADSVMGRFTISRDNSKNTLYLQMNSLRAEDTAVYHCAKEPYSYDYWGQGTLVTVSS
notes: dAb, single VH
B13: BMS3h-56-17 (other)
VH: EVQLLESGGGLVQPGGSLRLSCAASGFSFRDYEMWWYRQAPGKGLERVSAINPQGTRTYYADSVKGRFTISRDNSKNTLYLQMNSLRAEDTAVYYCAKLPFTFEDWGQGTLVTVSS
notes: dAb, single VH
B14: BMS3h-56-21 (other)
VH: EVQLLESGGGLVQPGGSLRLSCAASGFTFRDYEMWWVRQAPGKGLERVSAINPQGTRTYYADSVKGRFTISRDNSKNTLYLQMNSLRAEDTAVYYCLKLPFTFEDWGQGTLVTVSS
notes: dAb, single VH
B15: BMS3h-56-18 (other)
VH: EVQLLESGGGLVQPGGSLRLSCAASGFTFRDYEMWWVRQAPGKVLERVSAINPQGTRTYYADSVKGRFTISRDNSKNMLYLQMNSLRAEDTAVYYCAKLPFTFEDWGQGTLVTVSS
notes: dAb, single VH
B16: BMS3h-56-28 (other)
VH: EVQLLESGGGLVQPGGSLRLSCAASGFTFAGYELWWVRQAPGKGLERVSAINPQGTRTYYADSVMGRFTISRDNSKNTLYLQMNSLRAEDTAVYYCAKLPFTFDDWGQGTLVTVSS
notes: dAb, single VH
B17: BMS3h-198-17 (other)
VH: EVQLLESGGGLVQPGGSLRLSCAASGFTFAGYEMWWVRQAPGKGLERVSAISGSGGSTYYADSVKGRFTISRDDSKNTLYLQMNSLRAEDTAVYYCARDPYSFDYWGQGTLVTVSS
notes: dAb, single VH
B18: BMS3h-56-22 (other)
VH: EVQLLESGGGLVQPGGSLRLSCAASGFTFRDYEMWWVRQAPGKGLERVSAINPQGTRTYYADSVKGRFTISRDNSKNTLYLQMNSLRADDTAVYHCTKLPFIFEYWGQGTLVTVSS
notes: dAb, single VH
B19: BMS3h-56-31 (other)
VH: EVQLLESGGGLVQPGGSLRLSCAASGFTFAGYEMWWFRQAPGKGLERVSAINPQGTRTYYADSVMGRFTISRDNSKNTLYLQMNSLRAEDTAVYYCAKLPFMFDDRGQGTLVTVSS
notes: dAb, single VH
B20: BMS3h-198-9 (other)
VH: EVQLLESGGGLVQPGGSLRLSCAASGFTFAGYEMWWVRQAPGKGLERVSAISGSGGSTYYADSVKGRFTISRDDSKNTLYLQMNSLRAEDTAVYYCAKEPYSFDYWGQGTLVTVSS
notes: dAb, single VH
B21: BMS3h-198-34 (other)
VH: EVQLLESGGGLVQPGGSLRLSCAASGFTFAGYEMWWVRQAPGKGLERVSAISGSGGSTYYADSVKGRFTISRDDSKNTLYLQMNSLRAEDTAVYYCAKDPYSFDNWGQGTLVTVSS
notes: dAb, single VH
B22: BMS3h-198-10 (other)
VH: EVQLLESGGGLVQPGGSLRLSCAASGSTIAGYEMWWVRQAPGKGLERVSAISGSGGSTYYADSVKGRFTISRDDSKNTLYLQMNSLRAEDTAVYYCAKDPYSFDYWGQGTLVTVSS
notes: dAb, single VH
B23: BMS3h-198-11 (other)
VH: EVQLLESGGGLVQPGGSLRLSCAASGFTFAGYEMWWVRQAPGKGLERVSAISGSGGSTYYADSVKGRFTISRDDSKNTLYLQMNSLRAEDTAVYYCARDPYSFDYWGQGTLVSVSS
notes: dAb, single VH
B24: BMS3h-193-12 (other)
VL: DIQMTQSPSSLSASVGDRVTITCRASQTIERRLNWYQQKPGKAPKLLIYLASRLQSGVPSRFSGSGSGTDFTLTISSLQPEDFATYYCHQYESPPLTFGQGTKVEIKR
notes: dAb, single VK
B25: BMS3h-193-30 (other)
VL: DIQMTQSPSSLSASVGDRVTITCRASQSIERRLNWYQQKPGKAPKLLIYLASRLQSGVPSRFSGSGSGTDFTLTISSLQPEDFATYYCHQYESPPLTFGQGTKVEIKR
notes: dAb, single VK
B26: BMS3h-193-10 (other)
VL: DIQMSQSPSTLSASVGDRVTITCRASQTIERRLNWYQQKPGKAPKLLIYLASRLQSGVPSRFSGSGSGTDFTLTISSLQPEDFATYYCHQYESPPLMFGQGTKVEIKR
notes: dAb, single VK
B27: BMS3h-193-27 (other)
VL: DIQMTQSPSSLSASVGDRVTITCRASQTIGRRLNWYQQKPGKAPKLLIYLASRLQSGVPSRFSGSGSGTDFTLTISSLQPEDFATYYCHQYESPPLTFGQGTKVEIKR
notes: dAb, single VK
B28: BMS3h-193-7 (other)
VL: DIQITQSPSSLSASVGDRVTITCRASQTIERRLNWYQQKPGKDPKLLIYLASRLQSGVPSRFSGSGSGTDFTLTISSLQPEDFATYYCHQYESPPLTFGQGTKVEIKR
notes: dAb, single VK
B29: BMS3h-193-25 (other)
VL: DIQMTQSPSSLSASVGDRVTITCRASQTIERRLNWYQQKPGKAPRLLIYLATRLQSGVPSRFSGSGSGTDFTLTISSLQPEDFATYYCHQYESPPLTFGQGTKVEIKR
notes: dAb, single VK
B30: BMS3h-193-18 (other)
VL: DIQMTQSPSSLSASVGDRVTITCRASQTIGRRLNWYQQKPGKAPKLLIYLASRLQSGVPSRFSGSGSGSDFTLTISSLQPEDFATYYCHQYESPPLTFGQGTKVEIKR
notes: dAb, single VK
B31: BMS3h-193-11 (other)
VL: DIQMTQSPSSLSASVGDRVTITCRASQTIERRLNWYQQKPGKDPKLLIYLASRLQSGVPSRFSGSGSGTDFTLTISSLQPEDFATYYCHQYESPPLTFGQGTKVEIKR
notes: dAb, single VK
B32: BMS3h-193-26 (other)
VL: DIQMTQSPSSLSASVGDRVTITCRASQPIERRLNWYQQKPGKAPKLLIYLASRLQSGVPSRFSGSGSGTDFTLTISSLQPEDFATYYCHQYESPPLTFGQGTKVEIKR
notes: dAb, single VK
B33: BMS3h-193-19 (other)
VL: DIQMTQSPSSLSASVGDRVTITCRASQTIERRLNWYQQKPGKAPKLLIYLASRLQSGVPSRFSGSGSGTEFTLTISSLQPEDFATYYCHQYESPPLTFGQGTKVEIKR
notes: dAb, single VK

For this test, the target named is T1, human CD40 (BMS, CY24FEB06-01) (human, UniProt P25942 21-193).
T1 construct: Soluble reagent of the bead and ELISA RBA; It is detected with an anti-human IgG (Fc) mAb, so it may be a CD40-Ig fusion
T1 sequence (P25942 21-193 limits assumed): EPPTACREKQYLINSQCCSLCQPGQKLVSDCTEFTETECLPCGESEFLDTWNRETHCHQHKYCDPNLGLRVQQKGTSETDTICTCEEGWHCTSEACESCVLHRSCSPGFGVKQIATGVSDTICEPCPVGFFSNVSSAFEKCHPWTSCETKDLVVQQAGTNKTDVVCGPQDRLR
The experiment in a line: ELISA RBA, competition with IZ-CD40L.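 Note: Neutravidin-coated 384-well plate, dAb–human CD40 complex bound for 2 h at room temperature, absorbance read at 450 nm after HCl stop.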
One may read the EC50 as the concentration at which the effect is half-maximal. Low values mean a more potent agent, high ones a less potent agent. B1 came in with an EC50 of 7 nM.

As to B2, the EC50 is 5.5 nM and 5.1 nM.

In the case of B3, the half-maximal effective concentration (EC50) was determined as 6.8 nM.

B4: a half-maximal response (EC50) required 6.1 nM.

Molecule B5 yielded a concentration for a half-maximal effect (EC50) of 24.5 nM.

Take B6: the EC50 was 5 nM.

The molecule B7 returned an EC50 of 5.5 nM.

As to B8, the EC50 amounted to 24.7 nM.

B9 gave an EC50 of 8.7 nM.

As for B10, the 50% effective concentration (EC50) was found to be 9.7 nM.

As to B11, the EC50 was 24.2 nM. This EC50 is about 2.5-fold higher than that of the molecule before.

As for B12, the EC50 came to 11.7 nM.

In the case of B13, it took 66 nM to reach a half-maximal effect (EC50).

With B14, the EC50 was 6.5 nM and 6.2 nM.

B15 returned a concentration for a half-maximal effect (EC50) of 6.5 nM.

With B16, the EC50 was 8.9 nM.

For B17, a half-maximal response (EC50) required 20 nM.

Consider B18, for which a half-maximal response (EC50) required 6.5 nM.

For the molecule B19, it took 61 nM to reach a half-maximal effect (EC50).

B20 registered an EC50 of 20 nM.

On to B21, for which the midpoint of the response, the EC50, lay at 32.6 nM.

B22 registered an EC50 of 35 nM. This EC50 and that of the molecule before are within 1.5-fold of each other.

In the case of B23, the EC50 was 20 nM.

B24 displayed an EC50 of 200 nM. This EC50 lies about 10-fold higher than the previous one.

As to B25, the EC50 is 290 nM and 116 nM.

As to B26, a half-maximal effect (EC50) was put at 200 nM.

In the case of B27, the EC50 amounted to 100 nM.

Consider B28, for which the EC50 worked out at 300 nM.

In turn, B29 returned an EC50 of 140 nM.

For the molecule B30, the concentration for a half-maximal effect (EC50) was found to be 100 nM.

B31: a half-maximal response (EC50) required 300 nM. Against the preceding molecule, the EC50 is about 3-fold higher.

With B32, the concentration giving a half-maximal response (EC50) is 100 nM.

In the case of B33, the midpoint of the response, the EC50, lay at 100 nM. This lies in the sub-micromolar range.
